Data from article PMC6265302, “Widespread bacterial lysine degradation proceeding via glutarate and L-2-hydroxyglutarate” (Nature Communications, 2018).

Key:
Conditions in all cases: Filter binding: 50 mM Tris-HCl, 100 mM KCl, 50 mM NaCl, 5 mM MgCl2, pH 7.6, 15 min, footprint: 50 mM MOPS, 100 mM NaCl, 20 mM KCl, 2.5 mM MgCl2, 0.1 mM DTT
[1] = target: T1, CsiR (Escherichia coli BW25113 (K-12)) (UniProt P37338); test: SPR
T1 sequence: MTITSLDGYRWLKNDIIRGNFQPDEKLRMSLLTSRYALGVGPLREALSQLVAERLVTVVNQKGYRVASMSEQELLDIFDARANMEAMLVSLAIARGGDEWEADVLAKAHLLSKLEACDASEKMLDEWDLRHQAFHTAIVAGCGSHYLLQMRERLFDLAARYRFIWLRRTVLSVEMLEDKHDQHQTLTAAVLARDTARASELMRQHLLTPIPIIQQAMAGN

[2] = target: T1, CsiR (Escherichia coli BW25113 (K-12)); test: hydroxyl radical footprinting
[3] = tested on: CsiR (Escherichia coli BW25113 (K-12)); test: SPR

CTTTTGTGCGCATTTTTCAGAAATGTAGATATTTTTAGATTATGGCTACGAAATGAG (double strand) [csiD 5'-UTR/promoter PCR product MS177/MS178]
Kd [1]: 0.01 µM

TATGAGATGTAGGGTGACATGGCGATGCTCATTTCGTAGCCATAATCTAAAAATATCTACATTTCTGAAAAATGCGCACAAAAGCGACATATTGTTTTCTTATTGTGATCAAAAGCAACA (double strand) [csiD promoter PCR product MS170/MS171]
binding [2]: binds

csiD 5'-UTR/promoter PCR product MS177/MS178
Kd [3]: 0.01 µM
